In patent US7589207B2, “Cyclohexyl compounds as CCR5 antagonists” (SmithKline Beecham Corporation, priority 2002, dated 2009):

Biological target: T1, human CCR5 chemokine receptor (Homo sapiens, UniProt P51681)
T1 construct: host or cells: Chinese Hamster Ovary (CHO) cells; membranes prepared from the cell pellet
Assay: CC-Chemokine Receptor-5 binding by Scintillation Proximity Assay (CCR5 SPA), displacement of 125I-MIP1α
Conditions: standard compound, 14-point concentration-response curve in triplicate, starting concentration 1 μM
Protocol: CC-Chemokine Receptor-5 Binding by Scintillation Proximity Assay (CCR5 SPA) Scintillation Proximity Assay for the Human CC-Chemokine Receptor, CCR-5
This protocol describes a high-throughput screen using SPA binding to identify compounds that inhibit binding of ^125I-MIP1α to the human CCR5 chemokine receptor.
Human CCR5 receptors were expressed in Chinese Hamster Ovary (CHO) cells, registration # 12025. Cells were grown in suspension and a 50 to 80 ml CCR5 cell pellet was prepared. […]
The saturation curve binding experiment is performed by adding varying amounts of [^125I]MIP1α (0-8.5 nM to membranes and beads in concentrations chosen from the optimal protein/bead ratio. The data is analyzed using a non-linear curve-fitting program. The Kd and Bmax are derived from the curve. […]

T1 sequence (P51681 whole entry): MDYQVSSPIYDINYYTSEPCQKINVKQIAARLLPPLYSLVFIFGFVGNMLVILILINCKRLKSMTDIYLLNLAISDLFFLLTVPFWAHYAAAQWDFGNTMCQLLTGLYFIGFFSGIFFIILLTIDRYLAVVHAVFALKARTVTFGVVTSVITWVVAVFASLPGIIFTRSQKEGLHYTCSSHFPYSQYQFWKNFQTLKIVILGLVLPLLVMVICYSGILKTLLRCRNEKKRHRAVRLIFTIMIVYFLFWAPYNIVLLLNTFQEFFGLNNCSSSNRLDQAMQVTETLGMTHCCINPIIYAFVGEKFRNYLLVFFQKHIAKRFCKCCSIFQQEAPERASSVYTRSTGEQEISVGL

average historical pKi: 7.6
Substance: MIP1α: natural chemokine ligand of CCR5, used as the standard compound in the CCR5 SPA binding assay
